Source: publication PMC3630103 (2013)

Molecular target: CHIKV pE2-E1 (E3-E2-E1) of the CHIKV-LR strain (Chikungunya virus (strain La Reunion …, UniProt Q8JUX5))
Assay: SPR

Chain of CHIKV pE2-E1 (E3-E2-E1) of the CHIKV-LR strain (Chikungunya virus (Q8JUX5 whole entry, looked up): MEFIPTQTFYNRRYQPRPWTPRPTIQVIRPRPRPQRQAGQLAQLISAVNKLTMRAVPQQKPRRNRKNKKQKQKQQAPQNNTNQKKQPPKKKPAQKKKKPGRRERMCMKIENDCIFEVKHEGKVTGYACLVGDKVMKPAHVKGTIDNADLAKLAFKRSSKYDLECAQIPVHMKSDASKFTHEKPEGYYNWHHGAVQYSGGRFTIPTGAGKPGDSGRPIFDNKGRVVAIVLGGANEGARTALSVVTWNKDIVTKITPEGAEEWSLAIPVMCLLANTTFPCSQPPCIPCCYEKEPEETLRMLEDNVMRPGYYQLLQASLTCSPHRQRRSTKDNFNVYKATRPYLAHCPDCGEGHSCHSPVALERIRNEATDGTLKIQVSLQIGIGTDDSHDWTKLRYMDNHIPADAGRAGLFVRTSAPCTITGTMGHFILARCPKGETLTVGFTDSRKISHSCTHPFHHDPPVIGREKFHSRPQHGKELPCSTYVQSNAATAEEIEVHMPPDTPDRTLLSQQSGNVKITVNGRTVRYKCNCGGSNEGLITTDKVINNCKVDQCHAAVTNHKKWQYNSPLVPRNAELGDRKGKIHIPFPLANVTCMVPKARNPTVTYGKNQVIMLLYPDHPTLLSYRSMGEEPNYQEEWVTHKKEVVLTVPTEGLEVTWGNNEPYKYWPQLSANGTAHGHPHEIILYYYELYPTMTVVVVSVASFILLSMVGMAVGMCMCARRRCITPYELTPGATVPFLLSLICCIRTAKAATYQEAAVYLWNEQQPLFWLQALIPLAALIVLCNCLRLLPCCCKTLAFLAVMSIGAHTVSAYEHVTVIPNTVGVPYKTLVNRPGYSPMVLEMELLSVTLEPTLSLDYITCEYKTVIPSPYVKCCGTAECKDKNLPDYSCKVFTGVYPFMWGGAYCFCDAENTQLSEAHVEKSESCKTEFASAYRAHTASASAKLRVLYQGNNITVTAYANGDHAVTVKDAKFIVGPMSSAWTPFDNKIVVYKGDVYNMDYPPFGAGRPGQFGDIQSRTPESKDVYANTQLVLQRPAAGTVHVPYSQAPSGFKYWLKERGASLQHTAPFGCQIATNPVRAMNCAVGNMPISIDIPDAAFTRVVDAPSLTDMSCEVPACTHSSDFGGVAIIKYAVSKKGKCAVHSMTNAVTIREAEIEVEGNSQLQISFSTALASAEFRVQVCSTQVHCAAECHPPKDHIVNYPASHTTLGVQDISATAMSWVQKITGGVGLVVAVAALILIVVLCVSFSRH

B1: chimeric mouse-human CHK-152 N297Q (aglycosyl variant) (antibody, V domains shown)
VH: QVQLQQPGAALVKPGASAMMSCKASGYTFTSYWITWVKQRPGQGLEWIGDIYPGTGRTIYKEKFKTKATLTVDTSSSTAFMQLNSLTSEDSAVYYCARGYGSPYYALDYWGQGTSVTVSS
VL: DIVLTQSPASLAVSQGQRATISCKASQSVDYDGDSYVNWYQQKPGQSPKLLIYDASNLESGIPARFSGSGSGTDFTLNIHPVEEEDVATYYCQESNEDPRTFGGGTKLEIK
Kd: 3.9 nM | koff: 0.00051 s⁻¹

B2: chimeric mouse-human CHK-152 (antibody, V domains shown)
VH: QVQLQQPGAALVKPGASAMMSCKASGYTFTSYWITWVKQRPGQGLEWIGDIYPGTGRTIYKEKFKTKATLTVDTSSSTAFMQLNSLTSEDSAVYYCARGYGSPYYALDYWGQGTSVTVSS
VL: DIVLTQSPASLAVSQGQRATISCKASQSVDYDGDSYVNWYQQKPGQSPKLLIYDASNLESGIPARFSGSGSGTDFTLNIHPVEEEDVATYYCQESNEDPRTFGGGTKLEIK
Kd: 3.1 nM | koff: 0.0004 s⁻¹
